Assay results published in US20230242902A1, “A HIGHLY ERROR-PRONE […] R[…] FOR TARGETED CONTINUOUS EVOLUTION IN VIVO” (The Regents of the University of California, priority 2017, published 2023).
Changes are numbered by the printed parent chain. In names and notes the source's numbering stands.

B1: I708T: TP-DNAP1 variant (protein)
chain: MDYKDKALNDLRNVYADFDSLPLDFRQILIKDRATLLQKEDVEKKILERQEDAKKYAEYLKQSEIPERISLPNIKRHKGVSISFEETSEDMVLEPRPFIFDGLNIRCFRRETIFSLKNKILNMVKESSSFKNVSRQSVSFMYFKIFNKGKVIASTKSVNIYEDKIDERLEDLCNNFDDVLKKIIDVTYGYESLFVSETYSYVIFYAKSIYFPQPRCVNNWGNNIPNILTFDSFKLFTANKNNVSCIKQCSRFLWQKDFNTLEEMIEYKNGNICIVTPQLHINDVRDIKSFNDIRLYSESPIKTFSVIDNTITYLFYFKEHLGVIFNITKSRHDRRVTKFSPLSKFSDVKNITVCFDIESYFDPEKESNQVNIPFICCASIIYNKVIGNIVDFEGRDCVAQMIEYVVDICGELNISSVELIAHNGGGYDFHYILSSMYNPAAIKNILIRNNSFISFNFAHDGVKFSVKDSYSFLLCSLANASKAFLNEETFKKTDFPHHDLKTADDLYKVYKEWSSVNTEINHVVEKEKLLITSEHIVNFTKNDKSKTLIEWSKDYCRNDVLVLSKVWLEFKNAVEDIFNCELVDQTMTLAGLSYKLFQANMPFDVELRHPNKEDYFNMREALIGGRCISVNGIYKDVLCLDVKSLYPASMAFYDQPYGSFKRVSSRPKDELGIYYVRVTPNRNNKSNFFPIRSHNKITYNNFEESTYTAWYTNVDIDIGLSEGHNIEYIPFDSYGNIGYSWSKKGKIFEKYIKDVLYKLKIKYEKQNNKVKRNVIKIIMNSLWGKFAQKWVNFEYFIKSEDDIDFESEEAYKIWDTDFMLIKKIKESTYSSKPIQNGVFTLSWARYHMKSIWDAGAKEGAECIYSDTDSIFVHKEHFKKNAKFMLNGLKVPIIGSEVGQLELECEFDKLLCAGKKQYMGFYTYFQDGKPCIKEKKRFKGIPSNYIIPELYAHLLSGADKEAKIQFLKFRREWGSVKGYIENKTVKAT
B2: Y829F: TP-DNAP1 variant (protein)
chain: B1 chain with T708I, Y829F
B3: S733E: TP-DNAP1 variant (protein)
chain: B1 chain with T708I, S733E
B4: I301Y: TP-DNAP1 variant (protein)
chain: B1 chain with I301Y, T708I
B5: I301S: TP-DNAP1 variant (protein)
chain: B1 chain with I301S, T708I
B6: K959A: TP-DNAP1 variant (protein)
chain: B1 chain with T708I, K959A
B7: I301V: TP-DNAP1 variant (protein)
chain: B1 chain with I301V, T708I
B8: E298S: TP-DNAP1 variant (protein)
chain: B1 chain with E298S, T708I
B9: I729W: TP-DNAP1 variant (protein)
chain: B1 chain with T708I, I729W
B10: E298F: TP-DNAP1 variant (protein)
chain: B1 chain with E298F, T708I
B11: I301A: TP-DNAP1 variant (protein)
chain: B1 chain with I301A, T708I
B12: T303M: TP-DNAP1 variant (protein)
chain: B1 chain with T303M, T708I
B13: F304Y: TP-DNAP1 variant (protein)
chain: B1 chain with F304Y, T708I
B14: E298P: TP-DNAP1 variant (protein)
chain: B1 chain with E298P, T708I
B15: A709N: TP-DNAP1 variant (protein)
chain: B1 chain with T708I, A709N
B16: I301K: TP-DNAP1 variant (protein)
chain: B1 chain with I301K, T708I
B17: T303W: TP-DNAP1 variant (protein)
chain: B1 chain with T303W, T708I
B18: I708V: TP-DNAP1 variant (protein)
chain: B1 chain with T708V
B19: S733Q: TP-DNAP1 variant (protein)
chain: B1 chain with T708I, S733Q
B20: K962Q: TP-DNAP1 variant (protein)
chain: B1 chain with T708I, K962Q
B21: T303L: TP-DNAP1 variant (protein)
chain: B1 chain with T303L, T708I
B22: S733R: TP-DNAP1 variant (protein)
chain: B1 chain with T708I, S733R
B23: E298V: TP-DNAP1 variant (protein)
chain: B1 chain with E298V, T708I
B24: F304R: TP-DNAP1 variant (protein)
chain: B1 chain with F304R, T708I
B25: I301E: TP-DNAP1 variant (protein)
chain: B1 chain with I301E, T708I
B26: S831T: TP-DNAP1 variant (protein)
chain: B1 chain with T708I, S831T
B27: I729F: TP-DNAP1 variant (protein)
chain: B1 chain with T708I, I729F
B28: E298Y: TP-DNAP1 variant (protein)
chain: B1 chain with E298Y, T708I
B29: S733N: TP-DNAP1 variant (protein)
chain: B1 chain with T708I, S733N
B30: K959M: TP-DNAP1 variant (protein)
chain: B1 chain with T708I, K959M
B31: I301M: TP-DNAP1 variant (protein)
chain: B1 chain with I301M, T708I
B32: Y829I: TP-DNAP1 variant (protein)
chain: B1 chain with T708I, Y829I
B33: F304A: TP-DNAP1 variant (protein)
chain: B1 chain with F304A, T708I
B34: I301C: TP-DNAP1 variant (protein)
chain: B1 chain with I301C, T708I
B35: T303H: TP-DNAP1 variant (protein, listed as Kluyveromyces lactis)
chain: B1 chain with T303H, T708I
B36: K302A: TP-DNAP1 variant (protein)
chain: B1 chain with K302A, T708I
B37: I729V: TP-DNAP1 variant (protein)
chain: B1 chain with T708I, I729V
B38: I301L: TP-DNAP1 variant (protein)
chain: B1 chain with I301L, T708I
B39: I824E: TP-DNAP1 variant (protein)
chain: B1 chain with T708I, I824E

Tested on: p1
Assay: p1 copy number by p1-encoded mKate2 fluorescence
Assay type: cell-based, S. cerevisiae
Settings: OR-Y24, measured in triplicate
In short: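 Copy number was inferred from p1-encoded mKate2 fluorescence in saturated OR-Y24 cultures (triplicate), calibrated linearly against qPCR of p1 leu2 relative to genomic LEU3.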

| Molecule | Mean fold-increase over w.t. (p1 copy number) [fold] |
| --- | --- |
| B1 | 2.41 |
| B2 | 2.46 |
| B3 | 2.06 |
| B4 | 3.28 |
| B5 | 2.29 |
| B6 | 1.55 |
| B7 | 2.53 |
| B8 | 2.43 |
| B9 | 1.97 |
| B10 | 1.74 |
| B11 | 2.41 |
| B12 | 2.5 |
| B13 | 2.41 |
| B14 | 2.57 |
| B15 | 2.01 |
| B16 | 2.71 |
| B17 | 2.96 |
| B18 | 2.01 |
| B19 | 1.86 |
| B20 | 1.56 |

| Molecule | Mean fold-increase over w.t. (p1 copy number) [fold] |
| --- | --- |
| B21 | 2.41 |
| B22 | 1.98 |
| B23 | 2.64 |
| B24 | 3.49 |
| B25 | 2.57 |
| B26 | 1.71 |
| B27 | 1.7 |
| B28 | 2.17 |
| B29 | 1.86 |
| B30 | 2.02 |
| B31 | 2.76 |
| B32 | 1.86 |
| B33 | 2.14 |
| B34 | 2.46 |
| B35 | 2.3 |
| B36 | 1.88 |
| B37 | 1.87 |
| B38 | 2.94 |
| B39 | 2.12 |
